Entries after “also recorded” stand apart in the source; their conditions may differ.
Columns and labels:
[1] = test system: human mesenchymal stromal cells; assay: ALP activity assay after 6 days of osteogenic culture; type: cell-based; details: different doses
Description: Primary calvarial osteoblasts were isolated from five-day-old mice by triple collagenase/dispase II digestion. Cells were cultured in α-MEM medium (Gibco) containing 10% FBS, 2 mM L-glutamine, 1% penicillin/streptomycin, 1% Hepes, and 1% nonessential amino acids and differentiated with ascorbic acid and β-glycerophosphate. Conditioned medium was collected from culture of primary osteoblasts and stocked at −80° C. hMSCs were cultured and differentiated into osteoblasts using a commercial kit (Cyagen). All cells were routinely tested to be mycoplasma negative.
For staining of extracellular matrix mineralization, cells were fixed with 10% neutral buffered formalin and stained with alizarin red. Mineralization activity was measured by colorimetric analysis. For alkaline phosphatase (ALP) activity, osteoblasts were fixed with 10% neutral formalin buffer and stained with the solution containing Fast Blue and Naphthol (Sigma-Aldrich). Alternatively, osteoblasts were incubated with 10-fold diluted Alamar Blue solution, washed, and incubated with a solution containing 6.5 mM Na2CO3, 18.5 mM NaHCO3, 2 mM MgCl2, and phosphatase substrate (Sigma-Aldrich). ALP activity was measured by a spectrophotometer (Thermo).

[2] = test system: bone marrow macrophages (BMMs); assay: In vitro osteoclast formation assay with RANKL and recombinant SLIT3; type: cell-based, mouse
Description: Murine bone marrow cells were flushed from the femur and tibia of mice and cultured in petri dishes in α-MEM medium with 10% FBS and 20 ng/ml of rM-CSF. Nonadherent cells were replated into tissue culture dishes and cultured in the same medium for 3 d to obtain osteoclast precursors. The osteoclast precursors then differentiated into osteoclasts in the presence of human RAMKL (50 ng/ml; PeproTech) and M-CSF for 3 days. Peripheral blood mononuclear cells from the whole blood of healthy volunteers were isolated by density gradient centrifugation using Ficoll (Invitrogen, Carlsbad, Calif.). CD14-positive cells were purified from fresh PBMCs using anti-CD14 magnetic beads (Miltenyi Biotec, Auburn, Calif.), as recommended by the manufacturer. Human monocytes were cultured in a-MEM with 10% FBS in the presence of M-CSF (20 ng/ml; PeproTech, Rocky Hill, N.J.) for 2 d to obtain monocyte-derived macrophages. Experiments with human cells were approved by the Hospital for Special Surgery Institutional Review Board.
Osteoclast culture, differentiation assays. Western Molting and qPCR. In vitro primary osteoclast cultures, quantitative PCR, Western blotting, and TRAP staining were performed as previously described. Primary antibodies were specific for SLIT3. (1:1,000; Cell Signaling) and HSP90 (1:2,000; Sigma).

[3] = test system: murine ovariectomy (OVX) model of postmenopausal osteoporosis; assay: Ovariectomy (OVX) induced bone loss, therapeutic model after osteopenia onset; type: in vivo, mouse
[4] = test system: murine ovariectomy (OVX) model of postmenopausal osteoporosis; assay: Ovariectomy (OVX) induced bone loss, prophylactic model; type: in vivo, mouse
Description: (§1) Micro-CT (μCT) analysis was conducted on a Scanco Medical μCT 35 system at the Citigroup Biomedical Imaging Core using the previously described parameters. (Shim et al. 2013). μCT analysis was performed by an investigator blinded to the genotypes of the animals under analysis.
For histomorphometry, mice were injected with calcein (25 mg/kg, Sigma), and undecalcified sections of the lumbar vertebrae were stained using von Kossa and TRAP as described by Fukuda et al. (2013). Static and dynamic histomorphometric analysis was performed with using the Osteomeasure Analysis System (Osteometrics) following standard nomenclature as described (Dempster et al. 2013). Bone volume/total volume (BV/TV), bone formation rate/bone surface (BFR/BS, μm^3 […] yr^−1), mineral apposition rate (MM, um Day^−1), osteoblast surface/bone surface (Ob.S/BS, %) and osteoclast number/bone perimeter (No. OC/Bpm) were analyzed.
For the prophylactic model, 12-week-old female mice (JAX) were anesthetized and bilaterally ovariectomized or sham operated. Ovariectomized mice were given twice weekly intravenous injections of 1 mg per kg body weight of SLITS or vehicle or daily subcutaneous (sc) injections of 80 ug/kg PTH (1-34) for 6 weeks starting 2 weeks after ovariectomy. […] All mice were then randomly assigned to one of four groups: Sham, OVX+vehicle, OVX+SLITS and OVX+PTH. Three days after the last injection, all of the mice were euthanized and subjected to bone analysis as described earlier.

fracture site = assay: Femoral fracture model, local delivery of SLIT3 into the fracture site; type: in vivo, mouse
Description: as §1
For whole-mount immunostaining, retinas were collected from adult mice after systemic or local SLIT3 administration in bone fracture models.
Bone fracture was done following previously described protocols with modifications (Bradaschia-Correa et al. 2017). In brief, after anesthesia and surgical site sterilization, an incision above the right anterolateral femur was made. The femur and patella were then exposed, and a 27-gauge syringe needle was inserted parallel with the long axis of the femur through the patellar groove into the marrow cavity. The needle was then removed, and a single cut was made in the middle of the femoral diaphysis using a dremel saw with a diamond thin cutting wheel (VWR, Cat #100230-724). A blunt 25-gauge needle was then inserted into the marrow space through the hole made in the patella to stabilize the fracture. The needle was then trimmed to avoid it from projecting into the patella-femoral joint space. Muscle was then placed over the osteotomy site and stitched with absorbable sutures prior to closing the skin with wound clips.
Alternatively, the gelatin sponge was manually soaked with SLITS (300 ug/ml in PBS) or vehicle for 1 hour on ice and immediately placed to the surgical fracture area. All animals were euthanized by CO2 at time points indicated.
All bones were tested to failure using four-point bending on a precision electromagnetic-based load frame (EnduraTEC ELF 3200, Bose Corporation, Minnetonka, MC). Femurs were placed with the posterior surface on the lower supports, spaced 9.9 mm apart. The upper supports were spaced 3.3 ram. Load was applied at a rate of 0.1 mm/s until failure occurred. The failure load (N) and bending stiffness […] within the elastic range were calculated from the force-displacement curves and the four-point dimensions.

[5] = treatment initiated eight weeks after OVX
[6] = treatment initiated two weeks after OVX

B1: SLIT3: SLIT3 recombinant protein (R&D); secreted ligand of ROBO receptors (protein, UniProt O75094 34-1523, looked up)
Slit homolog 3 protein: CPTKCTCSAASVDCHGLGLRAVPRGIPRNAERLDLDRNNITRITKMDFAGLKNLRVLHLEDNQVSVIERGAFQDLKQLERLRLNKNKLQVLPELLFQSTPKLTRLDLSENQIQGIPRKAFRGITDVKNLQLDNNHISCIEDGAFRALRDLEILTLNNNNISRILVTSFNHMPKIRTLRLHSNHLYCDCHLAWLSDWLRQRRTVGQFTLCMAPVHLRGFNVADVQKKEYVCPAPHSEPPSCNANSISCPSPCTCSNNIVDCRGKGLMEIPANLPEGIVEIRLEQNSIKAIPAGAFTQYKKLKRIDISKNQISDIAPDAFQGLKSLTSLVLYGNKITEIVKGLFDGLVSLQLLLLNANKINCLRVNTFQDLQNLNLLSLYDNKLQTISKGLFAPLQSIQTLHLAQNPFVCDCHLKWLADYLQDNPIETSGARCSSPRRLANKRISQIKSKKFRCSGSEDYRSRFSSECFMDLVCPEKCRCEGTIVDCSNQKLVRIPSHLPEYVTDLRLNDNEVSVLEATGIFKKLPNLRKINLSNNKIKEVREGAFDGAASVQELMLTGNQLETVHGRVFRGLSGLKTLMLRSNLIGCVSNDTFAGLSSVRLLSLYDNRITTITPGAFTTLVSLSTINLLSNPFNCNCHLAWLGKWLRKRRIVSGNPRCQKPFFLKEIPIQDVAIQDFTCDGNEESSCQLSPRCPEQCTCMETVVRCSNKGLRALPRGMPKDVTELYLEGNHLTAVPRELSALRHLTLIDLSNNSISMLTNYTFSNMSHLSTLILSYNRLRCIPVHAFNGLRSLRVLTLHGNDISSVPEGSFNDLTSLSHLALGTNPLHCDCSLRWLSEWVKAGYKEPGIARCSSPEPMADRLLLTTPTHRFQCKGPVDINIVAKCNACLSSPCKNNGTCTQDPVELYRCACPYSYKGKDCTVPINTCIQNPCQHGGTCHLSDSHKDGFSCSCPLGFEGQRCEINPDDCEDNDCENNATCVDGINNYVCICPPNYTGELCDEVIDHCVPELNLCQHEAKCIPLDKGFSCECVPGYSGKLCETDNDDCVAHKCRHGAQCVDTINGYTCTCPQGFSGPFCEHPPPMVLLQTSPCDQYECQNGAQCIVVQQEPTCRCPPGFAGPRCEKLITVNFVGKDSYVELASAKVRPQANISLQVATDKDNGILLYKGDNDPLALELYQGHVRLVYDSLSSPPTTVYSVETVNDGQFHSVELVTLNQTLNLVVDKGTPKSLGKLQKQPAVGINSPLYLGGIPTSTGLSALRQGTDRPLGGFHGCIHEVRINNELQDFKALPPQSLGVSPGCKSCTVCKHGLCRSVEKDSVVCECRPGWTGPLCDQEARDPCLGHRCHHGKCVATGTSYMCKCAEGYGGDLCDNKNDSANACSAFKCHHGQCHISDQGEPYCLCQPGFSGEHCQQENPCLGQVVREVIRRQKGYASCATASKVPIMECRGGCGPQCCQPTRSKRRKYVFQCTDGSSFVEEVERHLECGCLACS
osteoblast activation / differentiation (ALP activity) [1]: did not enhance osteoblast activation; also recorded: does not directly regulate osteoblast differentiation or activity
number of TRAP positive osteoclasts compared with controls ([2]; BMMs with RANKL and recombinant SLIT3, three days): no significant changes
expression of osteoclast marker genes ([2]; BMMs with RANKL, three days): modestly inhibited
bone loss after onset of OVX-induced osteopenia ([3]; IV twice weekly initiated eight weeks after OVX): significantly reversed bone loss; also recorded: therapeutic effects
cortical thickness [3, 5]: increased
trabecular BV/TV [3, 5]: increased
CD31hiEMCNhi endothelial cells ([3]; treatment initiated eight weeks after OVX, femur): significantly increased
OVX-induced bone loss (micro-CT) ([4]; IV twice weekly initiated two weeks after OVX): significantly countered OVX-induced bone loss; also recorded: comparable to the effects of PTH treatment; also recorded: preventive effects
endosteal CD31hiEMCNhi endothelium after OVX ([4]; L3 vertebrae): reversed the attenuation
endosteal bone formation ([4]; L3 vertebrae): rescued
amounts of CD31hiEMCNhi vasculature in vivo ([4]; treatment for six weeks in vivo): increase amounts
cortical thickness [4, 6]: increased
trabecular BV/TV [4, 6]: increased
fracture healing, local delivery (fracture site; implanted at fracture site): enhances bone-fracture healing
non-skeletal vascular abundance or morphology (fracture site; local delivery): did not impact
brain ultrastructure (fracture site; mouse, in vivo): did not impact

— patent US20200397860A1, “SLIT AND BONE GROWTH MODULATION” (Cornell University, priority 2018, published 2020)
